# Patent US20230288399A1 (FNCT BIOTECH, published 2023)
# What was measured:
# SRC [1] = target: T1, SRC (UniProt P12931 2-536); assay: co-immunoprecipitation in SW-480 and HCT-116 colorectal cancer cells
# T1 construct: Endogenous protein in colorectal cancer cell lysates or cells; also called p-SRC (phosphorylated form)
# Excerpt: As a result of performing immunoprecipitation to confirm the expression correlation between ICAM-1 and SRC in SW-480 and HCT-116 colorectal cancer cells, it was confirmed that ICAM-1 binds to SRC endogenously, as shown in FIG. 3D.
# SRC [2] = target: T1, SRC; assay: immunoprecipitation with ICAM-1 Tyr512 mutants
# Procedure: Furthermore, in order to confirm that ICAM-1 binds to SRC by a specific residue, an immunoprecipitation reaction was performed using a mutant with phosphomimetics form that inhibits (Y512A) or activates (Y512D) the Tyr512 phosphorylation residue of ICAM-1.
binding result (SRC [1]),binding result (SRC [2]),Binder
binds,,"intracellular adhesion molecule 1 (ICAM-1) (receptor, The assay used the endogenous protein of SW-480 and HCT-116 cells) QTSVSPSKVILPRGGSVLVTCSTSCDQPKLLGIETPLPKKELLLPGNNRKVYELSNVQEDSQPMCYSNCPDGQSTAKTFLTVYWTPERVELAPLPSWQPVGKNLTLRCQVEGGAPRANLTVVLLRGEKELKREPAVGEPAEVTTTVLVRRDHHGANFSCRTELDLRPQGLELFENTSAPYQLQTFVLPATPPQLVSPRVLEVDTQGTVVCSLDGLFPVSEAQVHLALGDQRLNPTVTYGNDSFSAKASVSVTAEDEGTQRLTCAVILGNQSQETLQTVTIYSFPAPNVILTKPEVSEGTEVTVKCEAHPRAKVTLNGVPAQPLGPRAQLLLKATPEDNGRSFSCSATLEVAGQLIHKNQTRELRVLYGPRLDERDCPGNWTWPENSQQTPMCQAWGNPLPELKCLKDGTFPLPIGESVTVTRDLEGTYLCRARSTQGEVTRKVTVNVLSPRYEIVIITVVAAAVIMGTAGLSTYLYNRQRKIKKYRLQQAQKGTPMKPNTQATPP"
,binds,ICAM-1 Y512D mutant (receptor) QTSVSPSKVILPRGGSVLVTCSTSCDQPKLLGIETPLPKKELLLPGNNRKVYELSNVQEDSQPMCYSNCPDGQSTAKTFLTVYWTPERVELAPLPSWQPVGKNLTLRCQVEGGAPRANLTVVLLRGEKELKREPAVGEPAEVTTTVLVRRDHHGANFSCRTELDLRPQGLELFENTSAPYQLQTFVLPATPPQLVSPRVLEVDTQGTVVCSLDGLFPVSEAQVHLALGDQRLNPTVTYGNDSFSAKASVSVTAEDEGTQRLTCAVILGNQSQETLQTVTIYSFPAPNVILTKPEVSEGTEVTVKCEAHPRAKVTLNGVPAQPLGPRAQLLLKATPEDNGRSFSCSATLEVAGQLIHKNQTRELRVLYGPRLDERDCPGNWTWPENSQQTPMCQAWGNPLPELKCLKDGTFPLPIGESVTVTRDLEGTYLCRARSTQGEVTRKVTVNVLSPRYEIVIITVVAAAVIMGTAGLSTYLYNRQRKIKKDRLQQAQKGTPMKPNTQATPP
